Test results taken from PMC2709225 (Nature structural & molecular biology, 2009).

Target: the molecule itself
Test: SEC-MALS

B1: stabilised full-length ectodomain of human hedgehog-interacting protein HIP (eHIPS) (domain or fragment, UniProt Q96QV1-1 56-670, looked up)
chain: MSQLELLSGGEMLCGGFYPRLSCCLRSDSPGLGRLENKIFSVTNNTECGKLLEEIKCALCSPHSQSLFHSPEREVLERDLVLPLLCKDYCKEFFYTCRGHIPGFLQTTADEFCFYYARKDGGLCFPDFPRKQVAGPASNYLDQMEEYDKVEEISAAHKHNCFCIQEVVSGLRQPVGALHSGDGSQRLFILEKEGYVKILTPEGEIFKEPYLDIHKLVQSGIKGGDERGLLSLAFHPNYKKNGKLYVSYTTNQERWAIGPHDHILRVVEYTVSRKNPHQVDLRTARVFLEVAELHRKHLGGQLLFGPDGFLYIILGDGMITLDDMEEMDGLSDFTGSVLRLDVDTDMCNVPYSIPRSNPHFNSTNQPPEVFAHGLHDPGRCAVDRHPTDININLTILCSDSNGKNRSSARILQIIKGKDYESEPSLLEFKPFSNGPLVGGFVYRGCQSERLYGSYVFGDRNGNFLTLQQSPVTKQWQEKPLCLGTSGSCRGYFSGHILGFGEDELGEVYILSSSKSMTQTHNGKLYKIVDPKRPLMPEECRATVQPAQTLTSECSRLCRNGYCTPTGKCCCSPGWEGDFCRTAKCEPACRHGGVCVRPNKCLCKKGYLGPQCEQVD
modifications: enzymatically biotinylated within an engineered C-terminal tag (form attached to the SPR surface); fully glycosylated for MALS
stoichiometry N: 2
